Experimental data taken from US20210130454A1 (BLUEFIN BIOMEDICINE, published 2021).
Blank lines part the entries; values can stand above or below the binder they belong to.

Experiments:
[1] = biological target: T1, human SEZ6 on cells (293-SEZ6) (human, UniProt Q53EL9 20-994); assay: flow cytometry on live 293-SEZ6 cells, Alexa Fluor 488 anti-human IgG secondary [continued), panel F]
T1 construct: whole, on cells; also called Seizure Protein 6 Homolog
T1 sequence (looked up): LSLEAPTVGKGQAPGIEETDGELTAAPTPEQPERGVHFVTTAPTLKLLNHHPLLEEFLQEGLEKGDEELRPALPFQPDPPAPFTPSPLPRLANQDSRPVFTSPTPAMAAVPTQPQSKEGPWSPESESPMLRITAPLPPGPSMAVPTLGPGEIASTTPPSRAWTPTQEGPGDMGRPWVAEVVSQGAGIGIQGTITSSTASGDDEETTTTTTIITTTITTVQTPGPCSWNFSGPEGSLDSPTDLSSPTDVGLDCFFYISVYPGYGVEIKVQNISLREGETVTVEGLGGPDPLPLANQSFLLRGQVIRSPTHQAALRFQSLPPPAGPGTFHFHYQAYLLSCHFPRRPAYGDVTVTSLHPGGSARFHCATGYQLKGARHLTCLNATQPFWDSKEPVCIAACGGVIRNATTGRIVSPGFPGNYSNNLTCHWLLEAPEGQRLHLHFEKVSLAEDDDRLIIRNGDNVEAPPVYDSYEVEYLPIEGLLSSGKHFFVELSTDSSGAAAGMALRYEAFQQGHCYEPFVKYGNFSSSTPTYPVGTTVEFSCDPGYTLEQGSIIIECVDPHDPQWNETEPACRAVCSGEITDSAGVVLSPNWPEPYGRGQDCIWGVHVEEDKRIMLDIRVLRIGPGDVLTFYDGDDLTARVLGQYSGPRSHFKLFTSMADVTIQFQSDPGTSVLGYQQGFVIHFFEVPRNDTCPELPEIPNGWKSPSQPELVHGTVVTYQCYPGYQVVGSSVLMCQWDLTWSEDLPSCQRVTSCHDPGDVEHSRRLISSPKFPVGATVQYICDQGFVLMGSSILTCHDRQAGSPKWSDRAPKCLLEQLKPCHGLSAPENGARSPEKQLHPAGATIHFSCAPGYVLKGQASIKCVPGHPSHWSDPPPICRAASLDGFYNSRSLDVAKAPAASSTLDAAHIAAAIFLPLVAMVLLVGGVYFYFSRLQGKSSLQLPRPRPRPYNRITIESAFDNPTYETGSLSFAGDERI

[2] = biological target: T2, human SEZ6L on cells (293-SEZ6L) (human, UniProt Q9BYH1 29-1024); assay: flow cytometry on live 293-SEZ6L cells, Alexa Fluor 488 anti-human IgG secondary [continued), panel F]
T2 construct: whole, on cells; also called Seizure 6-like Protein
T2 sequence (looked up): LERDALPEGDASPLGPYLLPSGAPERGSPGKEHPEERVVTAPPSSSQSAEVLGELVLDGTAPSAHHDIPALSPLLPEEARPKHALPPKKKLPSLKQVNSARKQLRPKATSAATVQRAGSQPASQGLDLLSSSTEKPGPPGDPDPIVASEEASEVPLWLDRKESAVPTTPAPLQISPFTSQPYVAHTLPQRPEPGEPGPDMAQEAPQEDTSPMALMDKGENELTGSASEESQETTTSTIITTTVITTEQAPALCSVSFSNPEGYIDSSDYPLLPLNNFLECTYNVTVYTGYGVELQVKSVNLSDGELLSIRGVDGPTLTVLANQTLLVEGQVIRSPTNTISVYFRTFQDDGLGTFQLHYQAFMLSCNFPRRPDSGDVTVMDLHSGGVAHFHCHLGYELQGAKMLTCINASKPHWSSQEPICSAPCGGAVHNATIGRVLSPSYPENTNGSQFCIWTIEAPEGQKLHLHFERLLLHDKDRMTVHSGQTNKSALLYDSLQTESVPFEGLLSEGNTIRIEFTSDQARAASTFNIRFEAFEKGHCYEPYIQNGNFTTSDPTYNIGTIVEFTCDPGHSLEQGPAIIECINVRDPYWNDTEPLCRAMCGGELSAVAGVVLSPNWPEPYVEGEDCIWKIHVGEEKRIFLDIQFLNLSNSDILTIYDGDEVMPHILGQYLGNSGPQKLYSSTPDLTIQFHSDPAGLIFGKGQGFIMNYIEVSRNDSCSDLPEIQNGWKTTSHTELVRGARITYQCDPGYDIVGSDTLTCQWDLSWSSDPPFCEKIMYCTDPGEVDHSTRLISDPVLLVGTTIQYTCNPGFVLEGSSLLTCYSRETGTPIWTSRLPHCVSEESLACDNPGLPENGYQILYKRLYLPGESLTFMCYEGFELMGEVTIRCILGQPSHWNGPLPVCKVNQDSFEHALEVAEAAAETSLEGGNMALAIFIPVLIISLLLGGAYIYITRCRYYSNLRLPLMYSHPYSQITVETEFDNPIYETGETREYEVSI

[3] = biological target: T3, human SEZ6L2 on cells (293-SEZ6L2, HEK 293 cells transfected with human SEZ6L2, and SEZ6L2-expressing tumor … (human, UniProt Q6UXD5 28-910)); assay: flow cytometry on live 293-SEZ6L2 cells, primary antibody 1 ug/ml, Alexa Fluor 488 anti-human IgG secondary [continued), panel F]
T3 construct: Tumor cell lines express the endogenous protein; also called hSEZ6L2
T3 sequence (Q6UXD5 28-910): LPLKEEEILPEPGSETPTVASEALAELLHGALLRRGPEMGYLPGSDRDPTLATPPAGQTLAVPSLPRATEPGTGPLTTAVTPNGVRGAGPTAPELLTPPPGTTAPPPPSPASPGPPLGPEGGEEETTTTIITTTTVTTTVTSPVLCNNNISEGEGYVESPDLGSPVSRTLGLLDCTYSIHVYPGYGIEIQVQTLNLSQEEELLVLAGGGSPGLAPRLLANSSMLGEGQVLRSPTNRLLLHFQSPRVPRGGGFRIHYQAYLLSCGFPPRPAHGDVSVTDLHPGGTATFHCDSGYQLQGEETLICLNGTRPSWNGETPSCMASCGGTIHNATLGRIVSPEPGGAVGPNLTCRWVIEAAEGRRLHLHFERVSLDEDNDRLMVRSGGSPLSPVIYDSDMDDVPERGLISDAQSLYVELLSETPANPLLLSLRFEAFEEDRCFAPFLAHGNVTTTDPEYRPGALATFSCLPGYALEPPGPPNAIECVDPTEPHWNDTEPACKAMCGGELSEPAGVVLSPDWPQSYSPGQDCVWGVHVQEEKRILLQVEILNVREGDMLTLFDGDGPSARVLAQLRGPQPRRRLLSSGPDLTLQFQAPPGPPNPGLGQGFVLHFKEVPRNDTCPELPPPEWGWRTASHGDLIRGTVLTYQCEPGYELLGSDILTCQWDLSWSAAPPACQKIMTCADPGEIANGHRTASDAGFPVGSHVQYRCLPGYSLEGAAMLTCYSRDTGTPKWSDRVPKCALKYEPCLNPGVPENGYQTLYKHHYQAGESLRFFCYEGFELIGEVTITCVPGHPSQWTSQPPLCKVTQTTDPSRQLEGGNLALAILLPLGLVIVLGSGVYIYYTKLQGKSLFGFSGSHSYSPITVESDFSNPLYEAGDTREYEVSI

[4] = biological target: T3, human SEZ6L2 on cells (293-SEZ6L2, HEK …); assay: immunofluorescence and flow cytometry on HEK 293 cells transfected with human SEZ6L2 against untransfected cells
[5] = biological target: T1, human SEZ6 on cells (293-SEZ6); assay: flow cytometry on live 293-SEZ6 cells, Alexa Fluor 488 anti-human IgG secondary [continued), panel G]
[6] = biological target: T2, human SEZ6L on cells (293-SEZ6L); assay: flow cytometry on live 293-SEZ6L cells, Alexa Fluor 488 anti-human IgG secondary [continued), panel G]
[7] = biological target: T3, human SEZ6L2 on cells (293-SEZ6L2, HEK …); assay: flow cytometry on live 293-SEZ6L2 cells, primary antibody 1 ug/ml, Alexa Fluor 488 anti-human IgG secondary [continued), panel G]
[8] = biological target: T4, recombinant human SEZ6L2 (extracellular portion of human SEZ6L2 fused to six C-terminal histidine-tag repeats) (human, UniProt Q6UXD5 28-844); assay: BLI (ForteBio Octet Red96), antibody on Protein A biosensors, recombinant target protein in solution
T4 construct: also called SEZ6L2-his; recombinant SEZ6L2
T4 sequence (Q6UXD5 other isoform, or with tags, fused parts or gaps): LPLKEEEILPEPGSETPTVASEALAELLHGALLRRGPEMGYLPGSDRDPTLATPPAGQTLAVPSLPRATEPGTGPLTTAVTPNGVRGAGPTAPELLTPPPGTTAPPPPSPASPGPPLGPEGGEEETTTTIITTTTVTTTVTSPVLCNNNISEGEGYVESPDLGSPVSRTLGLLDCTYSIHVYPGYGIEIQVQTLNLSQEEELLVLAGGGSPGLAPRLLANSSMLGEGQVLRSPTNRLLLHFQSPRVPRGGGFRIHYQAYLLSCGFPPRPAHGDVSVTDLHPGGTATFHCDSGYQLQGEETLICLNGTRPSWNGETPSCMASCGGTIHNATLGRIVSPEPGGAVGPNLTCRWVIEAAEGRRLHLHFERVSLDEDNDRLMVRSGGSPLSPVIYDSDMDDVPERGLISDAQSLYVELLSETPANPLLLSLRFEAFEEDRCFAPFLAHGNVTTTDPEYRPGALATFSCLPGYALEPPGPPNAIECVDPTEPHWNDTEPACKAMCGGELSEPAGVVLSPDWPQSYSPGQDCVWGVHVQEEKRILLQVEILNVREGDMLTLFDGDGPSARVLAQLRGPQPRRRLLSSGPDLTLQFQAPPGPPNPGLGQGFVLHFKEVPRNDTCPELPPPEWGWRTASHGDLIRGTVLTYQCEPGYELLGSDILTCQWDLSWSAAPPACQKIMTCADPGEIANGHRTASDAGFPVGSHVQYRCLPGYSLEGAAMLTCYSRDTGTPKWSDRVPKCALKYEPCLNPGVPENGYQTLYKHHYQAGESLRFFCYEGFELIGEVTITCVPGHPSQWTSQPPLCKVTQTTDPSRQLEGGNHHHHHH

[9] = biological target: T5, recombinant cynomolgus monkey SEZ6L2 (cynomolgus monkey, UniProt G7Q0V6 28-844); assay: as above
T5 construct: The construct is not described; also called cynomolgus monkey SEZL2

[10] = biological target: T1, human SEZ6 on cells (293-SEZ6); assay: flow cytometry on live 293-SEZ6 cells, Alexa Fluor 488 anti-human IgG secondary [panel A]
[11] = biological target: T2, human SEZ6L on cells (293-SEZ6L); assay: flow cytometry on live 293-SEZ6L cells, Alexa Fluor 488 anti-human IgG secondary [panel A]
[12] = biological target: T1, human SEZ6 on cells (293-SEZ6); assay: flow cytometry on live 293-SEZ6 cells, Alexa Fluor 488 anti-human IgG secondary [continued), panel I]
[13] = biological target: T2, human SEZ6L on cells (293-SEZ6L); assay: flow cytometry on live 293-SEZ6L cells, Alexa Fluor 488 anti-human IgG secondary [continued), panel I]
[14] = biological target: T1, human SEZ6 on cells (293-SEZ6); assay: flow cytometry on live 293-SEZ6 cells, Alexa Fluor 488 anti-human IgG secondary [continued), panel H]
[15] = biological target: T2, human SEZ6L on cells (293-SEZ6L); assay: flow cytometry on live 293-SEZ6L cells, Alexa Fluor 488 anti-human IgG secondary [continued), panel H]
[16] = biological target: T3, human SEZ6L2 on cells (293-SEZ6L2, HEK …); assay: flow cytometry on live 293-SEZ6L2 cells, primary antibody 1 ug/ml, Alexa Fluor 488 anti-human IgG secondary [continued), panel H]

- binding result [1]: no binding (tested: 1 ug/ml)
- binding result [2]: no binding (tested: 1 ug/ml)
- binding result [3]: binds
B1: human anti-SEZ6L2 antibody 3B1 (antibody, V domains shown)
VH: QVQLVESGGGVVQPGRSLRLTCVVSGFAFSSYGMHWVRQAPGKGLEWVAVIWYDGSNKYYADSVKGRFTISRDNSKNTLYLQMNSLRAEDTAVYYCASLDYYGSGSRFDPWGQGTLVTVSS
VL: not shown
notes: Fully human antibody from H2L2 mice

- binding result [4]: binds
B2: murine anti-SEZ6L2 antibody mu2E4 (antibody, V domains shown)
VH: EVKLVESGGVLVKPGGSLKLSCAASGFTFSKYAMSWVRQTPEKRLEWVATISSGGSYTYYPDSVKGRFTISRDNARNTLYLQMSSLRSEDTAIYYCTREGGYDEGYAMDYWGQGTTLTVS
VL: DVVMTQTPLSLPVSLGDQASISCRSSQSLVHSYGNTYLHWYLQKPGQSPKLLIYKVSNRFSGVPDRFSGSGSGTDFTLKISRVEAEDLGVYFCSQSTHFRTFGGGTKLEIK
notes: Mouse hybridoma antibody

- binding result [5]: no binding (tested: 1 ug/ml)
- binding result [6]: no binding (tested: 1 ug/ml)
- binding result [7]: binds
B3: human anti-SEZ6L2 antibody 3B3 (antibody, V domains shown)
VH: EVQLVESGGGLVQPGGSLRLSCAASGFTFSSYWMSWVRQAPGKGLEWVANIKQDGSEKYYVDSVKGRFTISRDNAKNSLYLQMNSLRAEDTAVYYCARGGGSYAFDYWGQGTLVTVSS
VL: not shown
notes: as for B1

- binding result [4]: binds
B4: murine anti-SEZ6L2 antibody mu3E2 (antibody, V domains shown)
VH: EVLLVESGGRLVQPKGSLKLSCAASGFSFNTITMNWVRQAPGKGLEWVARIRSKSNNYATYYADAVKDRFTISRDDSQSMLYLQMNNLKTEDTAMYFCVRGIFSGYVYAMDYWGQGTTLTVSS
VL: DVVMTQSPLSLPVSVGDQASISCRSSQSIVHSNGNTYLEWYLQKPGQSPKVLIYKVSNRFSGVPDRFSGSGSGTDFTLKISRVEAEDLGVYYCFQGSHVPYTFGGGTKLEIK
notes: Mouse hybridoma antibody

- Kd [8]: 1 nM
- Kd [9]: 1 nM
- binding result [10]: no binding (tested: 1 ug/ml)
- binding result [11]: no binding (tested: 1 ug/ml)
B5: human anti-SEZ6L2 antibody 1A1 (antibody, V domains shown)
VH: QVQLVQSGAEVKKPGASVKVSCKASGYTFTGYYMFWVRQAPGQGLEWLGWINPNSGGTDYAQKFQGRVTMTRDTSISTAYMELSRLRSDDTAVYYCARDSGYDWFFDYWGQGTLVTVSS
VL: not shown
notes: Fully human antibody from H2L2 mice, expressed recombinantly; it was captured on Protein A and detected with anti-human IgG

- Kd [8]: 7 nM
- Kd [9]: 12 nM
- binding result [12]: no binding (tested: 1 ug/ml)
- binding result [13]: no binding (tested: 1 ug/ml)
B6: humanized anti-SEZ6L2 antibody 2E4 (antibody, human IgG1, V domains shown)
VH: EVKLVESGGVLVKPGGSLRLSCAASGFTFSKYAMSWVRQAPGKGLEWVSTISSGGSYTYYPDSVKGRFTISRDNARNSLYLQMNSLRAEDTAIYYCTREGGYDEGYAMDYWGQGTTVTVSS
VL: DIVMTQSPDSLAVSLGERATINCRSSQSLVHSYGNTYLHWYQQKPGQPPKLLIYKVSNRFSGVPDRFSGSGSGTDFTLTISSLQAEDVAVYFCSQSTHFRTFGGGTKVEIKR
notes: also called 2E4:4D2

- binding result [14]: no binding (tested: 1 ug/ml)
- binding result [15]: no binding (tested: 1 ug/ml)
- binding result [16]: binds
B7: human anti-SEZ6L2 antibody 3B6 (antibody, V domains shown)
VH: QVQLVQSGAEVKKPGASVKVSCKASGYTFTAYYMHWVRQAPGQGLEWMGWINPNSGGTNYAQKFQGRVTMTRDTSIDTAYLDLSRLRSDDTAVYYCAKDSGYDWYFDIWGRGTLVTVSS
VL: EIVLTQSPATLSLSPGERATLSCRASQNISSYLAWYQQKPGQAPRLLIYDASNRATGIPARFSGSGSGTDFTLTISSLEPEDFAVFYCQQHSNWPPLTFGGGTKVEIKR
notes: as for B1
